Source: IntAct's records for PubMed 24704786

B1: Interferon alpha/beta receptor 1 (Homo sapiens), P17181-1 (parent)
chain: MMVVLLGATTLVLVAVAPWVLSAAAGGKNLKSPQKVEVDIIDDNFILRWNRSDESVGNVTFSFDYQKTGMDNWIKLSGCQNITSTKCNFSSLKLNVYEEIKLRIRAEKENTSSWYEVDSFTPFRKAQIGPPEVHLEAEDKAIVIHISPGTKDSVMWALDGLSFTYSLVIWKNSSGVEERIENIYSRHKIYKLSPETTYCLKVKAALLTSWKIGVYSPVHCIKTTVENELPPPENIEVSVQNQNYVLKWDYTYANMTFQVQWLHAFLKRNPGNHLYKWKQIPDCENVKTTQCVFPQNVFQKGIYLLRVQASDGNNTSFWSEEIKFDTEIQAFLLPPVFNIRSLSDSFHIYIGAPKQSGNTPVIQDYPLIYEIIFWENTSNAERKIIEKKTDVTVPNLKPLTVYCVKARAHTMDEKLNKSSVFSDAVCEKTKPGNTSKIWLIVGICIALFALPFVIYAAKVFLRCINYVFFPSLKPSSSIDEYFSEQPLKNLLLSTSEEQIEKCFIIENISTIATVEETNQTDEDHKKYSSQTSQDSGNYSNEDESESKTSEELQQDFV

Variants of: B1
Conditions: with tyk2_human TYK2, P29597
Sequence of tyk2_human TYK2, P29597 (P29597 whole entry): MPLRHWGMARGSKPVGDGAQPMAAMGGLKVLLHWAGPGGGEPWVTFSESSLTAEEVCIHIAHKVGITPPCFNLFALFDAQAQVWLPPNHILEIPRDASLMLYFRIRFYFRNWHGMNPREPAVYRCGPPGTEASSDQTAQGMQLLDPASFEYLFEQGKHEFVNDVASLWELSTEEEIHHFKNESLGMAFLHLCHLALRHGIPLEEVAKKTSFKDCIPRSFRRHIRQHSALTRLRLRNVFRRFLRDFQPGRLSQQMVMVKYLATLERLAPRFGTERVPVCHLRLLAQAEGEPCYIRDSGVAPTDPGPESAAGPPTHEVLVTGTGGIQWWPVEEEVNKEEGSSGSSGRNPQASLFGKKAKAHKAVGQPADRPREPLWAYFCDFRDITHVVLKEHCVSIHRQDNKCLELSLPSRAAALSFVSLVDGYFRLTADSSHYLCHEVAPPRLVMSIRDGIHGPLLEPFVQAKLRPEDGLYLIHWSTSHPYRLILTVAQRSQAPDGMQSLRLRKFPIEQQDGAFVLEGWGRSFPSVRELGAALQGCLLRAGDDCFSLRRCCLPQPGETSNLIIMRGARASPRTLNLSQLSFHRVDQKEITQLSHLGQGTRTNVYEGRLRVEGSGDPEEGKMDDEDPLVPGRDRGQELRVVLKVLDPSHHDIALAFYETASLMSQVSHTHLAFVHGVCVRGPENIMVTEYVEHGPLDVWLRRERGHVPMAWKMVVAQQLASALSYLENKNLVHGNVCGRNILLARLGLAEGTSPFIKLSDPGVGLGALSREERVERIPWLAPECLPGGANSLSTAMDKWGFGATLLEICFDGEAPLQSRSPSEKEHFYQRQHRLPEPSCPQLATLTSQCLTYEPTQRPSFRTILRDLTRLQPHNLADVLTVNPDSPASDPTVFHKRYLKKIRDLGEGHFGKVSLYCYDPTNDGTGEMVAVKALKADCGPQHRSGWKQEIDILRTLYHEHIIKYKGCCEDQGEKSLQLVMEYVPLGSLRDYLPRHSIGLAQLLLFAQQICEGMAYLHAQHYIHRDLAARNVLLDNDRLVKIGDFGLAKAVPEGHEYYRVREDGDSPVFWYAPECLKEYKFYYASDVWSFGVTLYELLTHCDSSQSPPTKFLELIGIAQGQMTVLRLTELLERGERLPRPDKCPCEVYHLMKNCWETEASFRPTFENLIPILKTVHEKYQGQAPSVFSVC

Row | effect of a mutation on the interaction | Variant
1 | disrupting interaction strength | MMVVLLGATTLVLVAVAPWVLSAAAGGKNLKSPQKVEVDIIDDNFILRWNRSDESVGNVTFSFDYQKTGMDNWIKLSGCQNITSTKCNFSSLKLNVYEEIKLRIRAEKENTSSWYEVDSFTPFRKAQIGPPEVHLEAEDKAIVIHISPGTKDSVMWALDGLSFTYSLVIWKNSSGVEERIENIYSRHKIYKLSPETTYCLKVKAALLTSWKIGVYSPVHCIKTTVENELPPPENIEVSVQNQNYVLKWDYTYANMTFQVQWLHAFLKRNPGNHLYKWKQIPDCENVKTTQCVFPQNVFQKGIYLLRVQASDGNNTSFWSEEIKFDTEIQAFLLPPVFNIRSLSDSFHIYIGAPKQSGNTPVIQDYPLIYEIIFWENTSNAERKIIEKKTDVTVPNLKPLTVYCVKARAHTMDEKLNKSSVFSDAVCEKTKPGNTSKIWLIVGICIALFALPFVIYAAKVFLRCINYVFFPSLKPSSSIDEYFSEQPLKNLLLSTSEAQIEKCFIIENISTIATVEETNQTDEDHKKYSSQTSQDSGNYSNEDESESKTSEELQQDFV [E497A]
